Reference: US20070004636

Experiments:
[1] = system: human hepatocyte nuclear factor 1α (HNF-1α), His and Xpress-tagged at the N-terminus
[2] = system: T1, human hepatocyte nuclear factor 4α (HNF-4α), His and Xpress-tagged at the N-terminus
T1 sequence: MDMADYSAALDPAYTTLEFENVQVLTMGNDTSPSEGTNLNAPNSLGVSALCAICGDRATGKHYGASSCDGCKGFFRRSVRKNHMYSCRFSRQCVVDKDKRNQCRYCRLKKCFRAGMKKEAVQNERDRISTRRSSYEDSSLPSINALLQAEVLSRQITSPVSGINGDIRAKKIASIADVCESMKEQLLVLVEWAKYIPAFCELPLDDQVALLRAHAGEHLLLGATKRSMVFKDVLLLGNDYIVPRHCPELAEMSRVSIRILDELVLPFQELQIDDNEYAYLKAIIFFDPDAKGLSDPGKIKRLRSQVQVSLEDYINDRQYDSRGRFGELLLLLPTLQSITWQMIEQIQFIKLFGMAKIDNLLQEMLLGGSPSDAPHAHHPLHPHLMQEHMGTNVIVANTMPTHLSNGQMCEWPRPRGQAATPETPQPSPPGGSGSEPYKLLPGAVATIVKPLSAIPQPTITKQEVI

[3] = system: human insulin promoter factor 1 (IPF-1), His and Xpress-tagged at the N-terminus
Sequence of human insulin promoter factor 1 (IPF-1), His and Xpress-tagged at the N-terminus (chain, as listed by the source): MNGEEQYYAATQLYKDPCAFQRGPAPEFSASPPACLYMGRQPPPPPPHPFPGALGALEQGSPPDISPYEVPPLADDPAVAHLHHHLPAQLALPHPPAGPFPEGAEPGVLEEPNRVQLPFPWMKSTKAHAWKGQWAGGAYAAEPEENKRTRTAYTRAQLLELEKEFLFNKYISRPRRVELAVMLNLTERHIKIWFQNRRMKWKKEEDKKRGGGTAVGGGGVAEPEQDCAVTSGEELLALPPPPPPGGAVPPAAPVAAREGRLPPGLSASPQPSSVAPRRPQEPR

Sequence of human hepatocyte nuclear factor 1α (HNF-1α), His and Xpress-tagged at the N-terminus (chain, as listed by the source): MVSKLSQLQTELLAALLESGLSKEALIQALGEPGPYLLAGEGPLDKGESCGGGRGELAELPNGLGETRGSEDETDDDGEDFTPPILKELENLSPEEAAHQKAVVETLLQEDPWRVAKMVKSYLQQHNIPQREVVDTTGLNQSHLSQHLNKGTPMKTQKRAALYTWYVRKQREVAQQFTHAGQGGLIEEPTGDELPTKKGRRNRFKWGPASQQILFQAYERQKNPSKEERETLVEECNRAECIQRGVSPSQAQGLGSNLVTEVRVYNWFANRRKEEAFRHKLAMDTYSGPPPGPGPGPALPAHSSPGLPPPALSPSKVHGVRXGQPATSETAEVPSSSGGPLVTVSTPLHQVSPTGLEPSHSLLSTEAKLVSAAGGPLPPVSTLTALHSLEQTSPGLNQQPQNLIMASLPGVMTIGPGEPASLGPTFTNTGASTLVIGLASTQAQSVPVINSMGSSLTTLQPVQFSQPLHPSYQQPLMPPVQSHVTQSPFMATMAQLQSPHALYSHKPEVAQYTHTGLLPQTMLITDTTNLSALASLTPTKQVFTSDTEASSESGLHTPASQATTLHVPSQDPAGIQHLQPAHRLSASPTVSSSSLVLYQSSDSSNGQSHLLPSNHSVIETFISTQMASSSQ

Row | Substance | in vitro protein degradation test, Western blotting with anti-HNF-1α antibody [1] | in vitro protein degradation test, Western blotting with anti-HNF-4α antibody [2] | in vitro protein degradation test, Western blotting with anti-IPF-1 antibody [3] | in vitro protein degradation test, Western blotting with anti-Omni/M21 and anti-HNF-1α antibody [1] | in vitro protein degradation test, Western blotting with anti-HNF-4α and anti-Xpress antibody [2] | in vitro protein degradation test, Western blotting with anti-Xpress and anti-IPF-1 antibody [3]
1 | human m-calpain coexpressed with calpain small subunit 1 in sf-9 insect cells (cell lysate) | the degradation of human HNF-1α by human m-calpain was observed | the degradation of human HNF-4α by human m-calpain was observed | the degradation of human IPF-1 by human m-calpain was observed |  |  | 
2 | rabbit m-calpain, extracted from rabbit muscle (Protease, Calcium-Activated Neutral (calpain), Sigma Chemical Co.) |  |  |  | the in vitro degradation of HNF-1α by each of human µ-calpain, rabbit m-calpain and rat m-calpain was observed | the degradation of HNF-4α by rabbit m-calpain was observed | the in vitro degradation of IPF-1 by each of human µ-calpain, rabbit m-calpain and rat m-calpain was observed
